Measurements: PMC9628201

Biological target: SARS-CoV-2 WA.1 Spike-6P trimer (SARS-CoV-2 (WA.1))
Assay: cryo-EM structure

Q: SARS-CoV-2 WA.1 Spike-6P trimer was tested. Which stoichiometry N did it give?
A: Its stoichiometry N is 3.
